Assays:
[1] = biological target: human CSF1R on CSF1R (SEQ ID NO: 2)-transfected CHO cells (human, UniProt P07333 20-972); assay: cell-based or functional assay
[2] = biological target: T1, cynoCSF1R ECD-Fc (cynomolgus); assay: competition ELISA, blocking of human IL34 binding to cynoCSF1R ECD-Fc
T1 construct: also called cynomolgus CSF1R ECD

[3] = biological target: T2, mCSF1R ECD-Fc (mouse); assay: ELISA, plate coated with mCSF1R ECD-Fc, detection anti-human kappa-HRP, A450
T2 construct: also called mouse CSF1R ECD
Method: (§1) Ninety-six well clear-bottom ELISA plates were coated overnight with 1 μg/ml recombinant hCSF1R ECD.506-Fc (SEQ ID NO: 6; FivePrime Therapeutics) or Human M-CSF R Fc Chimera (R&D Systems) in PBS. The next morning, wells were washed four times with 0.05% Tween20 in PBS (PBST) and blocked with Blocker-Blotto (Pierce). Fifty μl of 0.5× serial dilutions of the humanized antibody or parental chimeric antibody, beginning with 2000 ng/ml, diluted 1:1 in Blocker-Blotto were added to the CSF1R-coated wells. After incubation at room temperature (RT) for 90 min, wells were washed four times with PBST, and a 1:5000 dilution of a peroxidase-conjugated Goat anti-Human kappa Light chain antibody (Sigma) in Blocker-Blotto was added to each well. After incubation at RT for 60 min, wells were washed four times with PBST, and 50 μl o-phenylenediamine dihydrochloride peroxidase substrate (Sigma) was added to each well. After incubation at RT for 30 min, A450 values of each well were read directly on a SpectraMaxPlus spectrophotometer with SoftMaxPro software (Molecular Devices).
(§2) The binding curve for each humanized antibody binding to mouse CSF1R ECD was determined as described above for human CSF1R, except the wells of the clear-bottom ELISA plates were coated overnight with 2 μg/ml recombinant mCSF1R ECD-Fc (FivePrime Therapeutics, SEQ ID NO: 93).

[4] = biological target: T3, hCSF1R ECD.506-Fc (human); assay: ELISA, plate coated with human CSF1R ECD-Fc
T3 construct: also called human CSF1R ECD-Fc fusion protein; human CSF1R ECD
Method: as §1

[5] = biological target: T1, cynoCSF1R ECD-Fc; assay: ELISA, plate coated with cynoCSF1R ECD-Fc
Method: as §1
as §2, with “cynomolgus” for “mouse”, “cynoCSF1R” for “mCSF1R”, “8, but without the 19 amino acid leader sequence).” for “93).”

[6] = biological target: T1, cynoCSF1R ECD-Fc; assay: competition ELISA, blocking of human CSF1 binding to cynoCSF1R ECD-Fc
Method: The humanized antibodies, along with the parental chimeric antibodies (cAbs), were tested for their ability to block human CSF1 binding to human and cynomolgus CSF1R ECD, as follows.
Recombinant Human CSF1 (M-CSF; R&D Systems) was biotinylated using an NH₂-Biotin Labeling Kit (Dojindo Molecular Technologies). One hundred μl of 1 μg/ml biotinylated CSF1 in PBST/0.1% BSA was added to the wells of Reacti-Bind Streptavidin coated plates (Pierce) pre-blocked with SuperBlock blocking buffer (Pierce) according to the manufacturer's instructions. Fifty μl of 0.5× serial dilutions of the humanized antibody or parental chimeric antibody, beginning with 2000 ng/ml, was incubated with 50 ng/ml hCSF1R ECD.506-Fc (SEQ ID NO: 6; FivePrime Therapeutics) or 50 ng/ml cynoCSF1R ECD-Fc (FivePrime Therapeutics, SEQ ID NO: 8, but without the 19 amino acid leader sequence) in 100 μl PBST/0.1% BSA for 90 min at RT, after which the admix was transferred to one or more wells of a ligand-coated plate. After 90 min at RT, wells were washed with PBST, and a 1:5000 dilution of an Fc-fragment-specific peroxidase-conjugated goat anti-human IgG (Jackson Immuno Research) in PBST/0.1% BSA was added to each well. After incubation at RT for 60 min, wells were washed with PBST/0.1% BSA, and o-phenylenediamine dihydrochloride peroxidase substrate (Sigma) was added to each well. After incubation at RT for 30 min, A450 values of each well were read directly on a SpectraMaxPlus spectrophotometer with SoftMaxPro software (Molecular Devices).

[7] = biological target: T4, hCSF1R ECD.506 (human, UniProt P07333 20-506); assay: SPR Biacore T100, antibody captured on anti-human IgG, hCSF1R ECD.506 as analyte, 1:1 model
T4 construct: also called human CSF1R ECD
Method: The kₐ, kd, and KD for binding to human CSF1R ECD was determined for each of the humanized antibodies as follows.
Binding kinetics of anti-CSF1R humanized antibodies to CSF1R ECD was determined using Biacore T100 Surface Plasmon Resonance (SPR) (GE Healthcare Life Sciences, Piscataway, N.Y.). Each of the humanized anti-CSF1R antibodies was captured on a CM5 sensor chip immobilized with anti-Human IgG antibody using the Human antibody capture kit (GE Healthcare Life Sciences, Piscataway, N.Y.) at 150 RU so that the Rmax value for hCSF1R ECD.506 (SEQ ID NO: 5) binding was 100 RU. Rmax values of less than 150 RU are recommended for accurately determining kinetic values. […] The association constant, dissociation constant, affinity, and binding capacity of each of the Fabs for human CSF1R ECD was calculated using the Biacore T100 Evaluation software package using the 1:1 binding model.

B1: h0301-L0H1 (antibody, human IgG4 S228P, kappa)
heavy: not shown
light: EIVLTQSPATLSLSPGERATLSCKASQSVDYDGDNYMNWYQQKPGQAPRLLIYAASNLESGIPARFSGSGSGTDFTLTISSLEPEDFAVYYCHLSNEDLSTFGGGTKVEIKRTVAAPSVFIFPPSDEQLKSGTASVVCLLNNFYPREAKVQWKVDNALQSGNSQESVTEQDSKDSTYSLSSTLTLSKADYEKHKVYACEVTHQGLSSPVTKSFNRGEC
notes: also called Ab2; huAb 0301-L0H1
In the case of B1, the “IC50, inhibition of CSF1-induced CSF1R phosphorylation (head prints 'Human CSF1/Human CSF1R ECD IC50')” value [1] is reported as 0.778 µg/mL, the “IC50, inhibition of IL34-induced CSF1R phosphorylation (head prints 'Human IL34/Human CSF1R ECD IC50')” value [1] is reported as 0.453 µg/mL and the IC50 [2] is reported as 0.0364 µg/mL. The binding result [3] was “no binding (tested: 2000 ng/ml)”, the EC50 [4] was 0.0142 µg/mL and the EC50 [5] was 0.0144 µg/mL. The IC50 [6] was 0.0274 µg/mL, the Kd [7] was 0.34 nM and the koff [7] was 0.00122 s⁻¹. For the same binder, the kon [7] was 3.56e+06 M⁻¹ s⁻¹.

B2: h0301-L1H1 (antibody, human IgG4 S228P, kappa)
heavy: not shown
light: NIVLTQSPATLSLSPGERATLSCKASQSVDYDGDNYMNWYQQKPGQAPRLLIYAASNLESGIPARFSGSGSGTDFTLTISSLEPEDFAVYYCHLSNEDLSTFGGGTKVEIKRTVAAPSVFIFPPSDEQLKSGTASVVCLLNNFYPREAKVQWKVDNALQSGNSQESVTEQDSKDSTYSLSSTLTLSKADYEKHKVYACEVTHQGLSSPVTKSFNRGEC
notes: also called Ab5; huAb 0301-L1H1
For B2, the “IC50, inhibition of CSF1-induced CSF1R phosphorylation (head prints 'Human CSF1/Human CSF1R ECD IC50')” value [1] was 0.814 µg/mL, the “IC50, inhibition of IL34-induced CSF1R phosphorylation (head prints 'Human IL34/Human CSF1R ECD IC50')” value [1] was 0.384 µg/mL and the IC50 [2] was 0.0424 µg/mL. The binding result [3] was “no binding (tested: 2000 ng/ml)”, the EC50 [4] was 0.0165 µg/mL and the EC50 [5] was 0.0167 µg/mL. The IC50 [6] was 0.0311 µg/mL, the Kd [7] was 0.32 nM and the koff [7] was 0.000921 s⁻¹. For the same binder, the kon [7] was 2.87e+06 M⁻¹ s⁻¹.

B3: h0301-L0H2 (antibody, human IgG4 S228P, kappa)
heavy: not shown
light: EIVLTQSPATLSLSPGERATLSCKASQSVDYDGDNYMNWYQQKPGQAPRLLIYAASNLESGIPARFSGSGSGTDFTLTISSLEPEDFAVYYCHLSNEDLSTFGGGTKVEIKRTVAAPSVFIFPPSDEQLKSGTASVVCLLNNFYPREAKVQWKVDNALQSGNSQESVTEQDSKDSTYSLSSTLTLSKADYEKHKVYACEVTHQGLSSPVTKSFNRGEC
notes: also called Ab3; huAb 0301-L0H2
With B3 the “IC50, inhibition of CSF1-induced CSF1R phosphorylation (head prints 'Human CSF1/Human CSF1R ECD IC50')” value [1] was 1.32 µg/mL, the “IC50, inhibition of IL34-induced CSF1R phosphorylation (head prints 'Human IL34/Human CSF1R ECD IC50')” value [1] was 0.481 µg/mL and the IC50 [2] was 0.0374 µg/mL. The binding result [3] was “no binding (tested: 2000 ng/ml)”, the EC50 [4] was 0.0148 µg/mL and the EC50 [5] was 0.0138 µg/mL. For the same binder, the IC50 [6] was 0.028 µg/mL, the Kd [7] was 0.28 nM and the koff [7] was 0.00066 s⁻¹. For the same binder, the kon [7] was 2.32e+06 M⁻¹ s⁻¹.

B4: h0301-L1H2 (antibody, human IgG4 S228P, kappa)
heavy: not shown
light: NIVLTQSPATLSLSPGERATLSCKASQSVDYDGDNYMNWYQQKPGQAPRLLIYAASNLESGIPARFSGSGSGTDFTLTISSLEPEDFAVYYCHLSNEDLSTFGGGTKVEIKRTVAAPSVFIFPPSDEQLKSGTASVVCLLNNFYPREAKVQWKVDNALQSGNSQESVTEQDSKDSTYSLSSTLTLSKADYEKHKVYACEVTHQGLSSPVTKSFNRGEC
notes: also called Ab6; huAb 0301-L1H2
With B4 the “IC50, inhibition of CSF1-induced CSF1R phosphorylation (head prints 'Human CSF1/Human CSF1R ECD IC50')” value [1] was 0.682 µg/mL, the “IC50, inhibition of IL34-induced CSF1R phosphorylation (head prints 'Human IL34/Human CSF1R ECD IC50')” value [1] was 0.397 µg/mL and the IC50 [2] was 0.0365 µg/mL. For the same binder, the binding result [3] was “no binding (tested: 2000 ng/ml)”, the EC50 [4] was 0.0162 µg/mL and the EC50 [5] was 0.0166 µg/mL. The IC50 [6] was 0.0278 µg/mL, the Kd [7] was 0.25 nM and the koff [7] was 0.000742 s⁻¹. It also gave a kon [7] of 2.95e+06 M⁻¹ s⁻¹.

B5: h0302-L0H2 (antibody, human IgG4 S228P, kappa, V domains shown)
VH: QVQLVQSGAEVKKPGSSVKVSCKASGYTFSDFNIHWVRQAPGQGLEWIGYINPYTDVTVYNEKFKGRATLTSDKSTSTAYMELSSLRSEDTAVYYCASYFDGTFDYALDYWGQGTLVTVSS
VL: EIVLTQSPATLSLSPGERATLSCRASESVDNYGLSFMNWYQQKPGQAPRLLIYTASNLESGIPARFSGSGSGTDFTLTISSLEPEDFAVYYCQQSKELPWTFGQGTKVEIKR
notes: also called Ab10; huAb 0302-L0H2
With B5 the “IC50, inhibition of CSF1-induced CSF1R phosphorylation (head prints 'Human CSF1/Human CSF1R ECD IC50')” value [1] was 0.438 µg/mL, the “IC50, inhibition of IL34-induced CSF1R phosphorylation (head prints 'Human IL34/Human CSF1R ECD IC50')” value [1] was 0.474 µg/mL and the IC50 [2] was 0.248 µg/mL. For the same binder, the binding result [3] was “no binding (tested: 2000 ng/ml)”, the EC50 [4] was 0.0179 µg/mL and the EC50 [5] was 0.155 µg/mL. The Kd [7] was 0.53 nM, the koff [7] was 0.00179 s⁻¹ and the kon [7] was 3.4e+06 M⁻¹ s⁻¹.

From patent US20220153851A1 (Five Prime, published 2022)
